These results are taken from patent US20250340623A1 (AC IMMUNE, published 2025).

Where no end group is shown, it is not given here. The star is where a group is joined. Biotin = O=C1N[C@H]2[C@H](CS[C@H]2CCCCC(=O)*)N1; Ahx = NCCCCCC(=O)O

In experiment [1] the target is T1, 82-96aa.
T1 construct: also called alpha-synuclein peptide 82-96
T1 peptide: {Biotin-Ahx}-VEGAGSIAAATGFVK
Briefly: indirect ELISA on biotinylated 15-mer peptide.

Experiment [2] concerns the target T2, 46-60aa.
T2 construct: also called alpha-synuclein peptide 46-60
T2 peptide: {Biotin-Ahx}-EGVVHGVATVAEKTK
Briefly: indirect ELISA on biotinylated 15-mer peptide.

Experiment [3] deals with T3, 1-14aa.
T3 construct: also called alpha-synuclein peptide 1-14
T3 peptide: MDVFMKGLSKAKEG-biotin
Description: indirect ELISA on biotinylated 15-mer peptide.

The target of experiment [4] is T4, 118-132aa.
T4 peptide: {Biotin-Ahx}-VDPDNEAYEMPSEEG
Description: indirect ELISA on biotinylated 15-mer peptide.

Experiment [5] concerns the target T5, 91-105aa.
T5 peptide: {Biotin-Ahx}-ATGFVKKDQLGKNEE
Briefly: indirect ELISA on biotinylated 15-mer peptide.

In experiment [6] the target is T6, 1-15aa.
T6 construct: also called alpha-synuclein peptide 1-15
T6 peptide: {Biotin-Ahx}-MDVFMKGLSKAKEGV
Briefly: indirect ELISA on biotinylated 15-mer peptide.

The target of experiment [7] is T7, 127-140aa.
T7 peptide: {Biotin-Ahx}-MPSEEGYQDYEPEA
Briefly: indirect ELISA on biotinylated 15-mer peptide.

In experiment [8] the target is T8, 10-24aa.
T8 construct: also called alpha-synuclein peptide 10-24
T8 peptide: {Biotin-Ahx}-KAKEGVVAAAEKTKQ
Description: indirect ELISA on biotinylated 15-mer peptide, supernatant 1/100.

Experiment [9] concerns the target alpha-synuclein seeds (UniProt P37840 1-140). Description: cell-based or functional assay.

B1: ACI-7079-2506F3-Ab1 (antibody, V domains shown)
VH: QVQLQQPGAELVKPGASVKLSCKASGYTFTTYWMQWVKQRPGQGLEWIGEIDPSDSYINYNQKFKGKATLTVDTSSSTAFMQLSSLTSEDSAVYYCARGMMDYWGQGTSVTVSS
VL: DVLMTQTPLSLPVSLGDQASISCRSSQSIVHSNGNTYLEWYLQKPGQSPKLLIYKVSNRFSGVPDRFSGSGSGTDFTLKISRVEAEDLGVYYCFKGSHVPYTFGGGTKLEIK
notes: mouse hybridoma mAb; VH/VL only; also called 2506F3E12
Turning to B1, the binding result in [1], in experiment [2], in experiment [3], in experiment [4], in [5] and in experiment [6] was “no binding (tested: supernatant 1/100)” throughout. Moreover, the binding result in experiment [7] was “no binding (tested: supernatant 1/100)”; in [8] it was “binds”. Besides, the “aggregation half-time (τ1/2) of seeded alpha-synuclein aggregation, ThT; no antibody 26.9 hours” value in experiment [9] amounted to 34.2 h.
